Measurements reported in US20240352438A1, “MEANS AND METHODS FOR DETOXIFYING OCHRATOXIN A” (DSM Austria GmbH, priority 2021, published 2024).

B1: 292 (protein)
chain: MTTRTRILTAFLSLLAANACAADAAPAAPHTVVLRAARMFDGASGKLVDHPQLTIVGNKIVRIAQGDKAEVPAGAEVVDLGDATLLPGFIDAHVHLSGQSSDNWYGDFFDNMMRFPAEQALYGAYYARITLEAGFTSVRDVGSTDWVALGLRNAIDAGKVPGPRMLVSNYAVGSTGGHADQDPIPPHKLPLAGPLQGVCNGPEECRAAVRYQIKYGANVIKFMPSGGVISLSDPVDAPELSQDEMNAVIGESHAWGRKVAAHAHGDKAAKMAVAAGVDSIEHGSFIEDDTLRAMKAKNVYLVPTISAVAHVEEKIGTFPPVIAEKGRAAAAHLRQTFRHAVQIGVPIALGTDAGVGAHGSNAREFRYMVENGLTPAQALLAGTANAARLLGTFDRVGTLEAGKLADVVAVPGNPIADITVTERPLFVMKDGVVVRRDAVR
modifications: exemplary polypeptide
B2: 294 (protein)
chain: MTTRTRILTAFLSLLAANACAADAAPAAPHTVVLRAARMFDGASGKLVDHPQLTIVGNKIVRIAQGDKAEVPAGAEVVDLGDATLLPGFIDAHVHLSGQSSDNWYGDFFDNMMRFPAEQALYGAYYARITLEAGFTSVRDVGSTDWVALGLRNAIDAGKVPGPRMLVSNYAVGSTGGHADQDPIPPHKLPLAGPLQGVCNGPEECRAAVRYQIKYGANVIKFMPSGGVLSLSDPVDAPELSQDEMNAVIGESHAWGRKVAAHAHGDKAAKMAVAAGVDSIEHGSFIEDDTLRAMKAKNVYLVPTISAVAHVEEKIGTFPPVIAEKGRAAAAHLRQTFRHAVQIGVPIALGTDAGVFAHGSNAREFRYMVENGLTPAQALLAGTANAARLLGTFDRVGTLEAGKLADVVAVPGNPIADITVTERPLFVMKDGVVVRRDAVR
modifications: exemplary polypeptide
B3: 295 (protein)
chain: MTTRTRILTAFLSLLAANACAADAAPAAPHTVVLRAARMFDGASGKLVDHPQLTIVGNKIVRIAQGDKAEVPAGAEVVDLGDATLLPGFIDAHVHLSGQSSDNWYGDFFDNMMRFPAEQALYGAYYARITLEAGFTSVRDVGSTDWVALGLRNAIDAGKVPGPRMLVSNYAVGSTGGHADQDPIPPHKLPLAGPLQGVCNGPEECRAAVRYQIKYGANVIKFMPSGGVLSLSDPVDAPELSQDEMNAVIGESHAWGRKVAAHAHGDKAAKMAVAAGVDSIEHGSFIEDDTLRAMKAKNVYLVPTISAVAHVEEKIGTFPPVIAEKGRAAAAHLRQTFRHAVQIGVPIALGTDAGVPAHGSNAREFRYMVENGLTPAQALLAGTANAARLLGTFDRVGTLEAGKLADVVAVPGNPIADITVTERPLFVMKDGVVVRRDAVR
modifications: exemplary polypeptide
B4: 296 (protein)
chain: MTTRTRILTAFLSLLAANACAADAAPAAPHTVVLRAARMFDGASGKLVDHPQLTIVGNKIVRIAQGDKAEVPAGAEVVDLGDATLLPGFIDAHVHLSGQSSDNWYGDFFDNMMRFPAEQALYGAYYARITLEAGFTSVRDVGSTDWVALGLRNAIDAGKVPGPRMLVSNYAVGSTGGHADQDPIPPHKLPLAGPLQGVCNGPEECRAAVRYQIKYGANVIKFMPSGGVLSLSDPVDAPELSQDEMNAVIGESHAWGRKVAAHAHGDKAAKMAVAAGVDSIEHGSFIEDDTLRAMKAKNVYLVPTISAVAHVEEKIGTFPPVIAEKGRAAAAHLRQTFRHAVQIGVPIALGTDAGVYAHGSNAREFRYMVENGLTPAQALLAGTANAARLLGTFDRVGTLEAGKLADVVAVPGNPIADITVTERPLFVMKDGVVVRRDAVR
modifications: exemplary polypeptide
B5: 297 (protein)
chain: MTTRTRILTAFLSLLAANACAADAAPAAPHTVVLRAARMFDGASGKLVDHPQLTIVGNKIVRIAQGDKAEVPAGAEVVDLGDATLLPGFIDAHVHLSGQSSDNWYGDFFDNMMRFPAEQALYGAYYARITLEAGFTSVRDVGSTDWVALGLRNAIDAGKVPGPRMLVSNYAVGSTGGHADQDPIPPHKLPLAGPLQGVCNGPEECRAAVRYQIKYGANVIKFMPSGGVLSLSDPVDAPELSQDEMNAVIGESHAWGRKVAAHAHGDKAAKMAVAAGVDSIEHGSFIEDDTLRAMKAKNVYLVPTISAIAHVEEKIGTFPPVIAEKGRAAAAHLRQTFRHAVQIGVPIALGTDAAVVAHGSNAREFRYMVENGLTPAQALLAGTANAARLLGTFDRVGTLEAGKLADVVAVPGNPIADITVTERPLFVMKDGVVVRRDAVR
modifications: exemplary polypeptide
B6: 299 (protein)
chain: MTTRTRILTAFLSLLAANACAADAAPAAPHTVVLRAARMFDGASGKLVDHPQLTIVGNKIVRIAQGDKAEVPAGAEVVDLGDATLLPGFIDAHVHLSGQSSDNWYGDFFDNMMRFPAEQALYGAYYARITLEAGFTSVRDVGSTDWVALGLRNAIDAGKVPGPRMLVSNYAVGSTGGHADQDPIPPHKLPLAGPLQGVCNGPEECRAAVRYQIKYGANVIKFMPSGGVLSLSDPVDAPELSQDEMNAVIGESHAWGRKVAAHAHGDKAAKMAVAAGVDSIEHGSFIEDDTLRAMKAKNVYLVPTISAIADVEEKIGTFPPVIAEKGRAAAAHLRQTFRHAVQIGVPIALGTDAGLGAHGSNAREFRYMVENGLTPAQALLAGTANAARLLGTFDRVGTLEAGKLADVVAVPGNPIADITVTERPLFVMKDGVVVRRDAVR
modifications: exemplary polypeptide
B7: 300 (protein)
chain: MTTRTRILTAFLSLLAANACAADAAPAAPHTVVLRAARMFDGASGKLVDHPQLTIVGNKIVRIAQGDKAEVPAGAEVVDLGDATLLPGFIDAHVHLSGQSSDNWYGDFFDNMMRFPAEQALYGAYYARITLEAGFTSVRDVGSTDWVALGLRNAIDAGKVPGPRMLVSNYAVGSTGGHADQDPIPPHKLPLAGPLQGVCNGPEECRAAVRYQIKYGANVIKFMPSGGVLSLSDPVDAPELSQDEMNAVIGESHAWGRKVAAHAHGDKAAKMAVAAGVDSIEHGSFIEDDTLRAMKAKNVYLVPTISAIAEVEEKIGTFPPVIAEKGRAAAAHLRQTFRHAVQIGVPIALGTDAGLGAHGSNAREFRYMVENGLTPAQALLAGTANAARLLGTFDRVGTLEAGKLADVVAVPGNPIADITVTERPLFVMKDGVVVRRDAVR
modifications: exemplary polypeptide
B8: 301 (protein)
chain: MTTRTRILTAFLSLLAANACAADAAPAAPHTVVLRAARMFDGASGKLVDHPQLTIVGNKIVRIAQGDKAEVPAGAEVVDLGDATLLPGFIDAHVHLSGQSSDNWYGDFFDNMMRFPAEQALYGAYYARITLEAGFTSVRDVGSTDWVALGLRNAIDAGKVPGPRMLVSNYAVGSTGGHADQDPIPPHKLPLAGPLQGVCNGPEECRAAVRYQIKYGANVIKFMPSGGVLSLSDPVDAPELSQDEMNAVIGESHAWGRKVAAHAHGDKAAKMAVAAGVDSIEHGSFIEDDTLRAMKAKNVYLVPTISAIAHAEEKIGTFPPVIAEKGRAAAAHLRQTFRHAVQIGVPIALGTDAGLGAHGSNAREFRYMVENGLTPAQALLAGTANAARLLGTFDRVGTLEAGKLADVVAVPGNPIADITVTERPLFVMKDGVVVRRDAVR
modifications: exemplary polypeptide
B9: 303 (protein)
chain: MTTRTRILTAFLSLLAANACAADAAPAAPHTVVLRAARMFDGASGKLVDHPQLTIVGNKIVRIAQGDKAEVPAGAEVVDLGDATLLPGFIDAHVHLSGQSSDNWYGDFFDNMMRFPAEQALYGAYYARITLEAGFTSVRDVGSTDWVALGLRNAIDAGKVPGPRMLVSNYAVGSTGGHADQDPIPPHKLPLAGPLQGVCNGPEECRAAVRYQIKYGANVIKFMPSGGVLSLSDPVDAPELSQDEMNAVIGESHAWGRKVAAHAHGDKAAKMAVAAGVDSIEHGSFIEDDTLRAMKAKNVYLVPTISAIAHVEEKIGTFPPVIAEKGRAAAAHLRQTFRHAVQIGVPIALGTDAGLPAHGSNAREFRYMVENGLTPAQALLAGTANAARLLGTFDRVGTLEAGKLADVVAVPGNPIADITVTERPLFVMKDGVVVRRDAVR
modifications: exemplary polypeptide
B10: 304 (protein)
chain: MTTRTRILTAFLSLLAANACAADAAPAAPHTVVLRAARMFDGASGKLVDHPQLTIVGNKIVRIAQGDKAEVPAGAEVVDLGDATLLPGFIDAHVHLSGQSSDNWYGDFFDNMMRFPAEQALYGAYYARITLEAGFTSVRDVGSTDWVALGLRNAIDAGKVPGPRMLVSNYAVGSTGGHADQDPVPPHKLPLLGPLQGVCNGPEECRAAVRYQIKYGANVIKFMPSGGVLSLSDPVDAPELSQDEMNAVIGESHAWGRKVAAHAHGDKAAKMAVAAGVDSIEHGSFIEDDTLRAMKAKNVYLVPTISAIAHVEEKIGTFPPVIAEKGRAAAAHLRQTFRHAVQIGVPIALGTDAGVGAHGSNAREFRYMVENGLTPAQALLAGTANAARLLGTFDRVGTLEAGKLADVVAVPGNPIADITVTERPLFVMKDGVVVRRDAVR
modifications: exemplary polypeptide

How the values were obtained:
[1] = Enzymatic activity comparison: activity remaining after 65° C. for 10 min at pH 6.0, relative to SEQ ID NO: 1; format: physicochemical
Method: To compare the temperature behavior and thermostability of selected enzymes to one another, enzyme was incubated at 65° C. for 10 min at pH 6.0. The enzymatic activity remaining after incubation was compared to the remaining activity of the enzyme of SEQ ID NO: 1 after incubation, the latter being set to 100%, see Table 16.

[2] = OTA detoxification activity assay (specific activity, fluorescence reduction ex/em 390/450 nm); format: biochemical; conditions: SEQ ID NO: 1 = 100%
Summary of the method: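 Recombinant enzyme preparation with 200 ng/mL OTA in 100 mM sodium phosphate, at pH 6.0 and pH 7.5, 37° C. Degradation followed as the fall in fluorescence at ex/em 390/450 nm. Specific activity taken from the initial linear slope; one unit degrades 1 μmol OTA per min at a starting OTA of […].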

Row | Molecule | Enzymatic activity remaining after incubation, compared to SEQ ID NO: 1 (set to 100%) [1] [%] | Specific OTA detoxification activities in % compared to the enzyme of SEQ ID NO: 1, pH 6.0 [2] [%] | Specific OTA detoxification activities in % compared to the enzyme of SEQ ID NO: 1, pH 7.5 [2] [%]
1 | B1 | 21 | 77 | 81
2 | B2 | 36 | 31 | 42
3 | B3 | 41 | 95 | 110
4 | B4 | 43 | 42 | 38
5 | B5 | 32 | 182 | 106
6 | B6 | 27 | 156 | 95
7 | B7 | 31 | 152 | 103
8 | B8 | 35 | 55 | 43
9 | B9 | 56 | 167 | 110
10 | B10 | 63 | 25 | 24
